Values quoted from earlier work, collected in PMC3312455.
Where “and” joins values, the source holds several entries; their conditions need not be identical. Equal values may be shown once. Each block holds one substance with its values, some of them ahead of it.

Tests used:
Assay in all cases: SPR
[1] = target: FGFR3-IIIc D2-D3 (Homo sapiens) (UniProt P22607)
[2] = target: αvβ3 integrin receptor (Homo sapiens) (UniProt P06756)
[3] = target: FGFR2-IIIb D2-D3 (Homo sapiens) (UniProt P21802)
[4] = target: FGFR1-IIIc ECD (Homo sapiens) (UniProt P11362)
[5] = target: FGFR3-IIIc D1-D3 (Homo sapiens) (UniProt P22607)
[6] = target: FGFR2-IIIb ECD (Homo sapiens) (UniProt P21802)
[7] = target: FGFR1-IIIc D1-D3 (Homo sapiens) (UniProt P11362)
[8] = target: FGFR1-IIIc D2-D3 (Homo sapiens) (UniProt P11362)
[9] = target: agrin (UniProt O00468)
[10] = target: c-MET ECD (Homo sapiens) (UniProt P08581)
[11] = target: PDGFRα ECD (Homo sapiens) (UniProt P16234)
[12] = target: PDGFRβ ECD (Homo sapiens) (UniProt P09619)
[13] = target: Neuropilin-1 ECD (Homo sapiens) (UniProt O14786)
[14] = target: VEGFR1/Flt ECD (Homo sapiens) (UniProt P17948)

Sequence of FGFR2-IIIb ECD (Homo sapiens) (P21802 22-377): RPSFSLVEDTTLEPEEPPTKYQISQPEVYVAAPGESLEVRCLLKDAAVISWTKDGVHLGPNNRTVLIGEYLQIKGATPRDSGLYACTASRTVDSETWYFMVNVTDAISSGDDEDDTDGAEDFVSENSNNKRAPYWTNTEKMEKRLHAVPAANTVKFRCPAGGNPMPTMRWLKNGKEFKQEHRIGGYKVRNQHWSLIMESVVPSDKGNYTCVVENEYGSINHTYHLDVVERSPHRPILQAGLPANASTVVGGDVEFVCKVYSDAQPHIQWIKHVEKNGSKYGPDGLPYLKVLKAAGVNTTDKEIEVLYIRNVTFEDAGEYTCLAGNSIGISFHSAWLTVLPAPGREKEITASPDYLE
Sequence of FGF1 (P05230 16-155): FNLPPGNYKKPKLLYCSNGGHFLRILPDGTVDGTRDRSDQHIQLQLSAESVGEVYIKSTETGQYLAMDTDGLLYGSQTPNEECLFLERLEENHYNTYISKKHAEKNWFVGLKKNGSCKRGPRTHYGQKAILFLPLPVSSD
Sequence of FGF2 (P09038 143-288): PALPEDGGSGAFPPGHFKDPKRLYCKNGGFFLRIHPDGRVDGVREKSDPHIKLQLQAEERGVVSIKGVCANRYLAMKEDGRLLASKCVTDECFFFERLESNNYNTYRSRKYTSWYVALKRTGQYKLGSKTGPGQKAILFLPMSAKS
Sequence of VEGF-A165 (P15692 whole entry): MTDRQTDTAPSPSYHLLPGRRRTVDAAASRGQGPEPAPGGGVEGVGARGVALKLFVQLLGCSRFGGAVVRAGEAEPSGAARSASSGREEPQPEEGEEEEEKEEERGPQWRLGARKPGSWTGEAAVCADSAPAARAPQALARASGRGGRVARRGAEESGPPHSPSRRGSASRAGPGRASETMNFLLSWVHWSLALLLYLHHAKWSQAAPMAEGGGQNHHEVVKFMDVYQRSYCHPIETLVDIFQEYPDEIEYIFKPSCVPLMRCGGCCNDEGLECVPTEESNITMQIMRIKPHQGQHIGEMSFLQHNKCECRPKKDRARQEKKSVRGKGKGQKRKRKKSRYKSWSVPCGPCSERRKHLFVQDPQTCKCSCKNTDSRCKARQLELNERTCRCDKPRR
Sequence of c-MET ECD (Homo sapiens) (P08581 25-932): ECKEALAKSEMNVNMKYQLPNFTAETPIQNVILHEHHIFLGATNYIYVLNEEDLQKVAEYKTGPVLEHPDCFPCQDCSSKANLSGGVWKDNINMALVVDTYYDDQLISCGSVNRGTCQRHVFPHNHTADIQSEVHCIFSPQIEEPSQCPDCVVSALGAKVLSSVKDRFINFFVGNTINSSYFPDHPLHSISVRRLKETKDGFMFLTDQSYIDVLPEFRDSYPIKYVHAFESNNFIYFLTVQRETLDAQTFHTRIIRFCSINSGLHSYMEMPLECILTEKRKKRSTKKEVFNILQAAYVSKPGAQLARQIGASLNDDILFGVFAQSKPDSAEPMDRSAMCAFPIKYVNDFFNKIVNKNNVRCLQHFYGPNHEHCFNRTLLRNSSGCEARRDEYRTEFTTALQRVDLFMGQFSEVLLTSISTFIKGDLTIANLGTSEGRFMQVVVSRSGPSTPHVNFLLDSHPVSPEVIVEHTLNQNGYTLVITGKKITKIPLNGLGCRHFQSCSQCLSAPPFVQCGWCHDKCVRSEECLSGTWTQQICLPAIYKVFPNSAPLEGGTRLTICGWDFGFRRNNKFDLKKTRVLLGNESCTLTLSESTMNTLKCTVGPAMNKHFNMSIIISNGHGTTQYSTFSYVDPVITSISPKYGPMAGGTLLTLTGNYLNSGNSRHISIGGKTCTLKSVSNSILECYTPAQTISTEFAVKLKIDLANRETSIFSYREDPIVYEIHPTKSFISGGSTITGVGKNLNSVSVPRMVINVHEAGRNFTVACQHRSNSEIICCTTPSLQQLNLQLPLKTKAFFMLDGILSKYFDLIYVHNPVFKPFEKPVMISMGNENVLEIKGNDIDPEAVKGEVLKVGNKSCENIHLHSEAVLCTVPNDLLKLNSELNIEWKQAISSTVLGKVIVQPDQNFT
Sequence of HGF (P14210 32-494): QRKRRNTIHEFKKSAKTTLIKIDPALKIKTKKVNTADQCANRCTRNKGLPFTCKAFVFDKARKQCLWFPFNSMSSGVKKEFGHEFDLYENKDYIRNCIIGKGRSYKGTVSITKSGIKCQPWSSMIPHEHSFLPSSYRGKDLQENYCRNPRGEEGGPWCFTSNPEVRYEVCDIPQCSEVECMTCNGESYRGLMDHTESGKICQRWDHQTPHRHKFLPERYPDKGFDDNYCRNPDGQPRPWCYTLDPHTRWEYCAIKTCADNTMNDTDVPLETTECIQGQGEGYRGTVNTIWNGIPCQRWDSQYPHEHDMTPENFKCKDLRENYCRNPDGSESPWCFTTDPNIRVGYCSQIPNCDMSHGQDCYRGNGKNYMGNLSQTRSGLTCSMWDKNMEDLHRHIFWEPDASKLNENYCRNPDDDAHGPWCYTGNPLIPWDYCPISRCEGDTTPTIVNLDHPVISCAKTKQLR
Sequence of HGF (P14210 495-728): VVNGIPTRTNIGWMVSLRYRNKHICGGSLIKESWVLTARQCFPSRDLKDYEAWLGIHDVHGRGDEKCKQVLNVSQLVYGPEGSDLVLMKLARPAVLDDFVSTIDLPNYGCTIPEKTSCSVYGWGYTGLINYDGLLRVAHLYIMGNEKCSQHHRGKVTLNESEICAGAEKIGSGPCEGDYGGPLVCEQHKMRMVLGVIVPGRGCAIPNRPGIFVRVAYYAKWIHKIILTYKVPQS
Sequence of αvβ3 integrin receptor (Homo sapiens) (P06756 31-1048, chain 1 of 2): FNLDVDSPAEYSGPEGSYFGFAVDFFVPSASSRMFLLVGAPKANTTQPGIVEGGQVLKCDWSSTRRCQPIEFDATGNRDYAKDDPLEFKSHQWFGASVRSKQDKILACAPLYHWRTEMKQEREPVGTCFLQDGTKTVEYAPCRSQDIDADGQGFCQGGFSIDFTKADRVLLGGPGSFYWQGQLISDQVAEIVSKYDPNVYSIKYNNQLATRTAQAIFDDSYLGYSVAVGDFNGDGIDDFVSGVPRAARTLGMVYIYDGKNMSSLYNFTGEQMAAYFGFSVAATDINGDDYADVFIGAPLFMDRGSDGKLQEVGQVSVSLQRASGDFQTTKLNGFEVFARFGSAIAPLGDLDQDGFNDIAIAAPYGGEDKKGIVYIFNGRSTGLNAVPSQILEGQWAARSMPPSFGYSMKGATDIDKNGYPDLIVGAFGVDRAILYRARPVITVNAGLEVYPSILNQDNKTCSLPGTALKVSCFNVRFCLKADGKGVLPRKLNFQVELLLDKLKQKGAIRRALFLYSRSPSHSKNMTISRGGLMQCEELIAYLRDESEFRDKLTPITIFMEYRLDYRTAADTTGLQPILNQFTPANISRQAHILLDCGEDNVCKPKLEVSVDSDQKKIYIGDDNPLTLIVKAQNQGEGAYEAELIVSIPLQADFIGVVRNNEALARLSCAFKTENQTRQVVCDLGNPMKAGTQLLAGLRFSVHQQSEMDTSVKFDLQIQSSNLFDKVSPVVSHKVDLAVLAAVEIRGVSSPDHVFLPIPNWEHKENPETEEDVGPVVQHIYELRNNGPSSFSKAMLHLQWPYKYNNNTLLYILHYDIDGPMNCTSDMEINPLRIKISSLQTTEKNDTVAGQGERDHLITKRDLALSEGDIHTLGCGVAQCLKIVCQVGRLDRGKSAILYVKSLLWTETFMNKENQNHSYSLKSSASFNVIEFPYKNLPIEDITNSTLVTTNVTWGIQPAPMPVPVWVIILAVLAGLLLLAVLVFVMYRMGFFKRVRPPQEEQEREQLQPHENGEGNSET
Sequence of αvβ3 integrin receptor (Homo sapiens) (P05106 27-788, chain 2 of 2, further chain): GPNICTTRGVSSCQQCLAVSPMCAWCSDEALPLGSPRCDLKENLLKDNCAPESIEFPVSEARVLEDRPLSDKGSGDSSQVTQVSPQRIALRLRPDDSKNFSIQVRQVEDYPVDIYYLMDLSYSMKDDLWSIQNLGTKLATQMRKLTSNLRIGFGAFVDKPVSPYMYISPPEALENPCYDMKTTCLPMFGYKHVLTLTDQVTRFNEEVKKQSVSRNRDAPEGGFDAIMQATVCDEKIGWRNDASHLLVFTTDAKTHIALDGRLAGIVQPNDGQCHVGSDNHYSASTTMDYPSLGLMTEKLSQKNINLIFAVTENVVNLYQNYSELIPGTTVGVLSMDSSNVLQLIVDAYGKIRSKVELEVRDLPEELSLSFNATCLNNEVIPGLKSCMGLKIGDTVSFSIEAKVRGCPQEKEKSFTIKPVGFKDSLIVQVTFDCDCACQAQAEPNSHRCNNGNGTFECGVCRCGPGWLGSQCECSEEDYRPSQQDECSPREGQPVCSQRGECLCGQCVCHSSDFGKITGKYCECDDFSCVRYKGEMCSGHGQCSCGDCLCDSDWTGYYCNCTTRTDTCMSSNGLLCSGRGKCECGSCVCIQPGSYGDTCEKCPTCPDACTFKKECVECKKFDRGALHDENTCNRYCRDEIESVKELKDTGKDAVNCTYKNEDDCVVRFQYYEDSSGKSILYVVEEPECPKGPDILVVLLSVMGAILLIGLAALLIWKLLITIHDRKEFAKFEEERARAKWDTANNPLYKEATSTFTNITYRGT
Sequence of FGF4 (P08620 31-206): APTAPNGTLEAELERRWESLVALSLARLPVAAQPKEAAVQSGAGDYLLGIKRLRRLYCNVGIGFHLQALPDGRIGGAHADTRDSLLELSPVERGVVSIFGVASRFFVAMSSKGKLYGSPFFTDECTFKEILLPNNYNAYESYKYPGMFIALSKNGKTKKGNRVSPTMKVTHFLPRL
Sequence of FGFR1-IIIc D2-D3 (Homo sapiens) (P11362 142-365): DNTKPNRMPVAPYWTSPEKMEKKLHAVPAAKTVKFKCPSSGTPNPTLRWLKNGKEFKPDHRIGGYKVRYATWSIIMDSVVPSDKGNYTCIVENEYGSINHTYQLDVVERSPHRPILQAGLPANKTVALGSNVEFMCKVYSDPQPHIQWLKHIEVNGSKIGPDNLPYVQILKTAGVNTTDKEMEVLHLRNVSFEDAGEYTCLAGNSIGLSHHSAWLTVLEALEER
Sequence of PDGF-BB (P01127 82-190): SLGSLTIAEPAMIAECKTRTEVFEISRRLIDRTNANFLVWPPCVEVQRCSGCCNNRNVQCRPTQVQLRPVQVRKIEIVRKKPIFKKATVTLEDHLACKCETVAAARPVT

Kd [1]: 230 nM
Kd [2]: 1100 nM
Kd [3]: 59.6 nM
Kd [4]: 35 nM
Kd [5]: 916 nM
Kd [6]: 0.8 nM
Substance: FGF1 (from UniProt P05230)

Kd [7]: 99 nM
Kd [8]: 62 nM
Kd [9]: 2.5 nM
Kd [6]: 0.5 nM
Substance: FGF2 (from UniProt P09038)

Kd [8]: 165 nM
Kd [6]: 0.42 nM
Substance: FGF4 (from UniProt P08620)

Kd [10]: 50 nM and 90 nM
Substance: HGF (from UniProt P14210)

Substance: HIV-Tat (from UniProt P04326)
Kd [2]: 32 nM

Kd [11]: 13.4 nM
Kd [12]: 453 nM
Substance: PDGF-AA (from UniProt P04085)

Substance: PDGF-BB (from UniProt P01127)
Kd [11]: 150 nM

Kd [13]: 2000 nM
Kd [14]: 0.007 nM and 0.03 nM
Substance: VEGF-A165 (from UniProt P15692)
